Measurements taken from patent publication US20100310646A1 (AARHUS UNIVERSITET, published 2010).
Where two headings read alike, the source gives them in different places.

B1: PAC1 (PAPP-A exosite antibody, scFv) (scFv)
scFv: EVQLLESGGGLVQPGGSLRLSCAASGFTFSSYAMSWVRQAPGKGLEWVSVITDMGRTTRYADSVKGRFTISRDNSKNTLYLQMNSLRAEDTAVYYCAKGLRQFDYWGQGTLVTVSSGGGGSGGGGSGGGGSTDIQMTQSPSSLSASVGDRVTITCRASQSISSYLNWYQQKPGKAPKLLIYHASQLQSGVPSRFSGSGSGTDFTLTISSLQPEDFATYYCQQYGGNPTTFGQGTKVEIKRAAAHHHHHHGAAEQKLISEEDLNGAA
notes: Selected from the Tomlinson I+J phage libraries and produced in E. coli HB2151; Purified scFv was used in SPR and cleavage assays; also called scFv PAC1; antibody PAC1
B2: PAC2 (PAPP-A exosite antibody, scFv) (scFv)
scFv: EVQLLESGGGLVQPGGSLRLSCAASGFTFSSYAMSWVRQAPGKGLEWVSSIQADGTRTGYADSVKGRFTISRDNSKNTLYLQMNSLRAEDTAVYYCAKQRGIFDYWGQGTLVTVSSGGGGSGGGGSGGGGSTDIQMTQSPSSLSASVGDRVTITCRASQSISSYLNWYQQKPGKAPKLLIYRASGLQSGVPSRFSGSGSGTDFTLTISSLQPEDFATYYCQQSHHYPSTFGQGTKVEIKRAAAHHHHHHGAAEQKLISEEDLNGAA
notes: Selected from the Tomlinson I+J phage libraries; also called scFv PAC2

How the values were obtained:
[1] = molecular target: T1, human pregnancy-associated plasma protein-A (PAPP-A) (human, UniProt Q13219 82-1627); assay: cell-based or functional assay
[2] = molecular target: T1, human pregnancy-associated plasma …; assay: cell-based or functional assay; remark: listed apart in the source
[3] = molecular target: human PAPP-A(D1484A) (human, UniProt Q13219 82-1627); assay: binding to alanine mutants of human PAPP-A (ELISA per paragraph 531)
Experimental: (§1) A, PAC1 binding to human PAPP-A/PAPP-A2 chimeras or truncated human PAPP-A variants analyzed by ELISA. Sequence derived from PAPP-A is shown by open bars, and absence of binding (−) or binding (+) is indicated. […] Samples with or without EDTA (10 mM) were injected (120 s) followed by dissociation (180 s) (solid lines). […] The absence of binding (−) or binding (+) is indicated. PAC5, which was used as a positive control, binds to an epitope of PAPP-A located N-terminal to CCP1.
(§2) Determination of antibody specificity and mapping of antibody binding—Mapping of antibody binding was carried out by ELISA using PAPP-A/PAPP-A2 chimeric proteins, and mutated variants of PAPP-A. The proteins were immobilized with polyclonal PAPP-A antibodies, and binding of phage antibodies were analyzed as detailed above.

[4] = molecular target: human PAPP-A(D1499A) (human, UniProt Q13219 82-1627); assay: as above
Experimental: as §1, §2

[5] = molecular target: human PAPP-A(D1502A) (human, UniProt Q13219 82-1627); assay: as above
Experimental: as §1, §2

[6] = molecular target: human PAPP-A R1529A mutant (human, UniProt Q13219 82-1627); assay: as above
Experimental: as §1, §2

[7] = molecular target: human PAPP-A D1530A mutant (human, UniProt Q13219 82-1627); assay: as above
Experimental: as §1, §2

[8] = molecular target: T2, human PAPP-A(E483Q) (human, UniProt Q13219 82-1627); assay: SPR (BIAcore T100), PAPP-A immobilized on CM5 chip, PAC1 0.35-11 nM injected at 37 C, 1:1 model, global fit; SPR, 37 C, PAPP-A on the chip
T2 construct: Active-site mutant; also called immobilized PAPP-A (SPR)
Experimental: (§3) A) Cleavage of IGFBP-4 (10 nM) by human PAPP-A (0.1 nM) in the presence of PAC1 (1.5 μM). The cleavage reaction was incubated (37° C.), and samples were taken out at intervals from 0 to 60 min, as indicated above each lane. The cleavage was visualized by SDS-PAGE followed by autoradiography. At 60 min, a faint band is visible at the position of the cleavage products (c). B) Cleavage of IGFBP-4 (10 nM) by murine PAPP-A (0.1 nM) for 1 h at 37° C. in the presence of 0-750 nM PAC1, as indicated above each lane. C) Cleavage of IGFBP-4 (10 nM) by PAPP-A (0.1 nM) was analyzed at different concentrations of PAC1. Relative initial velocities, determined independently, are plotted as a function of PAC1 concentration. All concentrations were determined by amino acid analysis (IGFBP-4 and PAC1) or ELISA (PAPP-A). Assuming competitive inhibition, an inhibitory constant was calculated (Kᵢ=1.2 nM±0.1). D) Sensorgrams showing binding of PAC1 to immobilized human PAPP-A. Purified PAC1 (0.35, 0.7, 1.4, 2.8, 5.5, and 11 nM) was injected onto the chip at 37° C. for 120 s followed by dissociation for 300 s.
(§4) Surface plasmon resonance analysis—Surface plasmon resonance experiments were carried out on a BIAcore T100 instrument (BIAcore AB, Uppsala, Sweden) using series S CM5 sensor chips and coupling reagents supplied by the manufacturer. Affinity purified PAPP-A(E483Q), 10 μg/mL in 10 mM sodium acetate, pH 5.0, was immobilized (at a level of 500 resonance units (RU)) to the activated chip at 25° C. Remaining activated groups were blocked by 1M ethanolamine. Purified antibodies (0.35-11 nM) diluted in 10 mM HEPES, 150 mM NaCl, 1 mM CaCl₂, 0.05% Tween-20, pH 7.4 (HBS), were injected over the sensor chip for 2 min at a flow rate of 30 μL/min at 37° C. Recorded signals were subtracted the background signal, determined by the injection of an irrelevant antibody. […] Data were analyzed using the software of the manufacturer (BIAcore T100 evaluation Software version 1.1).

[9] = molecular target: T1, human pregnancy-associated plasma …; assay: inhibition of IGFBP-4 (10 nM) cleavage by human PAPP-A (0.1 nM), relative initial velocities against PAC1 concentration, competitive inhibition assumed; IGFBP-4 cleavage assay, competitive inhibition assumed
Experimental: as §3, with “D) Sensorgrams showing binding of PAC1 to immobilized human PAPP-A. Purified PAC1 (0.35, 0.7, 1.4, 2.8, 5.5, and 11 nM) was injected onto the chip at 37° C. for 120 s followed by dissociation for 300 s.” left out
Measurement of proteolytic activity—Proteolytic activity of PAPP-A against IGFBP-4 and -5 was analyzed as previously described in detail (45). In brief, purified substrates, quantified by amino acid analysis, were labelled with ¹²⁵I (Amersham Biosciences). […] The degree of cleavage was determined by quantification of band intensities using a Typhoon imaging system (GE Healthcare), and background levels (mock signals) were subtracted. […]

[10] = molecular target: T2, human PAPP-A(E483Q); assay: SPR, calcium ion dependence of binding to immobilized PAPP-A
Experimental: as §4
However, the binding was only disturbed when PAC1 was injected with EDTA onto a chip equilibrated with the calcium ion containing buffer (FIG. 8B). Following EDTA treatment, equilibration of the flow cell using calcium ion containing buffer restored its ability to bind PAC1 (FIG. 8B). […] Similar results were obtained with PAC2 (not shown).

[11] = molecular target: human PAPP-A K1509A mutant (human, UniProt Q13219 82-1627); assay: binding to alanine mutants of human PAPP-A (ELISA per paragraph 531)
Experimental: as §1, §2

[12] = molecular target: human PAPP-A D1525A mutant (human, UniProt Q13219 82-1627); assay: as above
Experimental: as §1, §2

[13] = molecular target: human PAPP-A E1535A mutant (human, UniProt Q13219 82-1627); assay: as above
Experimental: as §1, §2

T2 sequence (Q13219 other isoform, or with tags, fused parts or gaps E483Q E483Q limits assumed): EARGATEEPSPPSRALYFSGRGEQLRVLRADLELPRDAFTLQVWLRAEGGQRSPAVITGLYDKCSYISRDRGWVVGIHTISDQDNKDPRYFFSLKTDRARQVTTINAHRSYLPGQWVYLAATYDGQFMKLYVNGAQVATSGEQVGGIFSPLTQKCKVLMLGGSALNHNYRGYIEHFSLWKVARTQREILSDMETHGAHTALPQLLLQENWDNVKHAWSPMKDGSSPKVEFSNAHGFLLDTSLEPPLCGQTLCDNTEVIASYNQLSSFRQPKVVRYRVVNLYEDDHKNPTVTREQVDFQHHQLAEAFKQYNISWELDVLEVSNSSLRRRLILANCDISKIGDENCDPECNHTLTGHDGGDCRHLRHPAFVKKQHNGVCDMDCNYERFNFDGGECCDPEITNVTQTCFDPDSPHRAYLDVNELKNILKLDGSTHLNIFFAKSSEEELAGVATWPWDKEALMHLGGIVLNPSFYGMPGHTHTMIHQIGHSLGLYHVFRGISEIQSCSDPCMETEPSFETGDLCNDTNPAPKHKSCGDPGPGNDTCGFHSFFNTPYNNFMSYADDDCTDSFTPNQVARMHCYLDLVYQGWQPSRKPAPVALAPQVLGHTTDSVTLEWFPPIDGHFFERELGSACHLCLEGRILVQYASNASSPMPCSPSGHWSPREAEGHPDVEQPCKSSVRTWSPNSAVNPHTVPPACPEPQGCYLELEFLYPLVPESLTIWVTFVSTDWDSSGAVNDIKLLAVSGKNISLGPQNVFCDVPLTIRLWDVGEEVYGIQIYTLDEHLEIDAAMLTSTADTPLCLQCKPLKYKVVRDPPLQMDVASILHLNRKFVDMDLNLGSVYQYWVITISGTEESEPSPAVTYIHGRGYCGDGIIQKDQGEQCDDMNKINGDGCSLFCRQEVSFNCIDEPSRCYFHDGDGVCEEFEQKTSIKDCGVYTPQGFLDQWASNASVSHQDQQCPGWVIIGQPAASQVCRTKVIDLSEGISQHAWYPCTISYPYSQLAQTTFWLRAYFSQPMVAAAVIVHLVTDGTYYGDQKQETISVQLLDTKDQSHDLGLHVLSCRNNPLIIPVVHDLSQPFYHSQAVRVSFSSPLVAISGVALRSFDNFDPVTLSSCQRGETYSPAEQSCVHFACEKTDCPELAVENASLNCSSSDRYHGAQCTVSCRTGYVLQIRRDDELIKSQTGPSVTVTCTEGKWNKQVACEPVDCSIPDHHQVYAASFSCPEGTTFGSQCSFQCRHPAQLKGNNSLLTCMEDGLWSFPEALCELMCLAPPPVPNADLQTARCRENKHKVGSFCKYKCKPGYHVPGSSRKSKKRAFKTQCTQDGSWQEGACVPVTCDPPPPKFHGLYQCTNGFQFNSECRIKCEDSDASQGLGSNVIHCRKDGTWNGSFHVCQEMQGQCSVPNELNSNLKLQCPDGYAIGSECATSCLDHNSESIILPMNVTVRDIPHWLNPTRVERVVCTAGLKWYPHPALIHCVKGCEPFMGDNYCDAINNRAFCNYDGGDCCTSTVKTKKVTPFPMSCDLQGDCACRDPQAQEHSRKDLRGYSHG
T1 sequence (Q13219 other isoform, or with tags, fused parts or gaps limits assumed): as the sequence (Q13219 other isoform, or with tags, fused parts or gaps E483Q E483Q limits assumed) above, with Q483E counted along it
Chain of human PAPP-A R1529A mutant (Q13219 other isoform, or with tags, fused parts or gaps R1529A R1529A limits assumed): as the sequence (Q13219 other isoform, or with tags, fused parts or gaps E483Q E483Q limits assumed) above, with Q483E, R1529A counted along it
Chain of human PAPP-A D1530A mutant (Q13219 other isoform, or with tags, fused parts or gaps D1530A D1530A limits assumed): as the sequence (Q13219 other isoform, or with tags, fused parts or gaps E483Q E483Q limits assumed) above, with Q483E, D1530A counted along it
Chain of human PAPP-A(D1484A) (Q13219 other isoform, or with tags, fused parts or gaps D1484A D1484A limits assumed): as the sequence (Q13219 other isoform, or with tags, fused parts or gaps E483Q E483Q limits assumed) above, with Q483E, D1484A counted along it
Chain of human PAPP-A(D1502A) (Q13219 other isoform, or with tags, fused parts or gaps D1502A D1502A limits assumed): as the sequence (Q13219 other isoform, or with tags, fused parts or gaps E483Q E483Q limits assumed) above, with Q483E, D1502A counted along it
Chain of human PAPP-A(D1499A) (Q13219 other isoform, or with tags, fused parts or gaps D1499A D1499A limits assumed): as the sequence (Q13219 other isoform, or with tags, fused parts or gaps E483Q E483Q limits assumed) above, with Q483E, D1499A counted along it
Chain of human PAPP-A D1525A mutant (Q13219 other isoform, or with tags, fused parts or gaps D1525A D1525A limits assumed): as the sequence (Q13219 other isoform, or with tags, fused parts or gaps E483Q E483Q limits assumed) above, with Q483E, D1525A counted along it
Chain of human PAPP-A K1509A mutant (Q13219 other isoform, or with tags, fused parts or gaps K1509A K1509A limits assumed): as the sequence (Q13219 other isoform, or with tags, fused parts or gaps E483Q E483Q limits assumed) above, with Q483E, K1509A counted along it
Chain of human PAPP-A E1535A mutant (Q13219 other isoform, or with tags, fused parts or gaps E1535A E1535A limits assumed): as the sequence (Q13219 other isoform, or with tags, fused parts or gaps E483Q E483Q limits assumed) above, with Q483E, E1535A counted along it

Row | Binder | IC50 (read off the curve) [1] [nM] | IC50 (read off the curve) [2] [nM] | binding result [3] | binding result [4] | binding result [5] | binding result [6] | binding result [7] | Kd [8] [nM] | koff [8] [s⁻¹] | kon [8] [M⁻¹ s⁻¹] | Ki [9] [nM] | binding result [10] | binding result [11] | binding result [12] | binding result [13]
1 | B1 | ~1 | ~2 | no binding | no binding | no binding | no binding | no binding | 0.25 | 0.00109 | 4.36e+06 | 1.2 | – | – | – | –
2 | B2 | – | – | no binding | no binding | no binding | no binding | no binding | – | – | – | – | binds | binds | binds | binds
